Laboratory results from article doi:10.1101/2024.02.21.581285 (bioRxiv, 2024).

Molecular target: the molecule itself
Assay: cryo-EM structure

B1: D. melanogaster copia Gag protein (natural protein)
chain: not shown
stoichiometry N: 540 monomers
